Measurements reported in patent US6767738B1, “Method of isolating adult mammalian CNS-derived progenitor stem cells using density gradient centrifugation” (The Salk Institute for Biological Studies, priority 1999, dated 2004).

Key:
Format in all cases: cell-based, rat
[1] = test system: c-fos mRNA (Trk receptor tyrosine kinase signaling); test: RT-PCR analysis of neurotrophin-dependent c-fos induction; settings: for induction of c-fos mRNA: proliferating controls treated with neurotrophin
Method: (§1) Cell Culture. For proliferating conditions, clonal stem cells (AP14) were cultured in Dulbecco's Modified Eagles Medium/Ham's F12 (DMEM/F12, 1:1) containing N2 supplement (Gibco BRL, Gaithersburg, Md.) and 20 ng/ml rhFGF-2 (provided by A. Baird, Prizm Pharmaceuticals Inc., La Jolla, Calif.). Culture dishes (Becton Dickinsin Labware, Lincoln Park, N.J.) were coated with polyomithine and mouse laminin as previously described by Ray, et al., Proliferation, differentiation and long-term culture of primary hippocampal neurons, Proc Natl Acad Sci USA 90:3602-3606 (1993). For differentiation experiments, cells were plated into polyornithine/laminin coated glass chamber slides (Nunc, Naperville, Ill.) at a density of 2.5—103 per cm2. The cells were incubated for 24 hrs in normal N2 medium containing 20 ng/ml FGF-2, and then the medium was replaced by N2 medium containing 0.5% […] (FBS) and 0.01% DMSO (control solvent) or […] all-trans retinoic acid (Sigma, St. Louis, Mo.). For further differentiation, the medium was replaced by N2 medium containing 0.5% FBS and one of the following: sterile water (control solvent), mouse 2.55 NGF (50 ng/ml, Boehringer Mannheim, Indianapolis, Ind.), rhBDNF (20 ng/ml, Alomone Labs, Jerusalem, Israel), rhNT-3 (40 ng/ml, Genentech, South San Francisco, Calif.). The medium was replaced every two days. For inhibition of the tyrosine kinase activity of the Trk receptors, K-252a (100 nM, Calbiochem, San Diego, Calif.) was added to the medium.
Reverse Transcription-PCR Analysis. Total RNA from stem cells was isolated using RNeasy Total RNA Kits (Qiagen, Chatsworth, Calif.) according to manufacturer's instructions. Fifty nanograms of total RNA was reverse transcribed using avian myeloblastosis virus reverse transcriptase (Promega, Madison, Wis.) with random hexamers ([…]) as primers in a […] reaction mixture. For PCR amplification, two sets of specific oligonucleotide pairs ([…]) were used: one directed to the transcript of interest, and one for a constitutively expressed transcript, either ribosomal protein L27 or L27a. Reactions were performed in a […] reaction mixture containing 10 mM Tris-Cl (pH 8.4), 50 mm KCl, 1.5 mM MgC12, […] each of the four dNTPs, 2 mCi of [a-32P]dCTP and 5 units of Taq polymerase (Promega) using a thermal cycler (Perkin-Elmer, Foster City, Calif.) with a regimen of 1 min at 94° C., 2 min at 60° C. (55° C. for trk receptors) and 2 min at 72° C. for 23 cycles Fifty microliters of each reaction was analyzed by electrophoresis on 8% polyacrylamide gels followed by autoradiography. […] Under these conditions, the L27 amplification product was directly proportional to the amount of input RNA, up to 50 ng total RNA. Oligonucleotide primers used are as follows: […]
RA treatment also results in neurotrophin-dependent induction of c-fos. Transient and rapid induction of immediate early genes such as c-fos is a well-characterized response to extracellular stimuli in neural cells. c-fos is induced after neurotrophin treatment in cultured […] hippocampal or cortical cells and the signaling cascade following c-fos induction is considered to be integral to subsequent steps in differentiation. To determine whether upregulation of mRNAs for trk receptors and p75NGFR observed in the stem cell cultures results in the acquisition of functional Trk-dependent stimulation of c-fos, mRNA was examined by RT-PCR analysis after stimulating RA-treated cells with neurotrophins. […]

ACSC cultures = test: Neuronal transmitter phenotype after RA priming and neurotrophin treatment (GABA, TH, calbindin, AChE); settings: neurotrophin after 6 days RA
Method: as §1
Immunofluorescence. An immunofluorescent staining was performed as previously described (Gage F H, Ray J, Fisher L J (1995a) Isolation, characterization, and use of stem cells from the CNS. Annu Rev Neurosci 18: 159-192. or Gage F H, Coates P W, Palmer T D, Kuhn H G, Fisher L J, Suhonen J O, Peterson D A, Suhr S T, Ray J (1995b) Survival and differentiation of adult neuronal progenitor cells transplanted to the adult brain. Proc Natl Acad Sci USA 92:11879-11883.) Briefly, after fixation with 4% paraformaldehyde in PBS, cells were incubated with primary antibodies overnight at […]. Then the cells were incubated for 1 hr with secondary antibodies (Jackson Immunoresearch) conjugated to fluorescein isothiocyanate, or cyanin-3. Primary antibody concentrations used are as follows (mo=mouse monoclonal, rb=rabbit polyclonal, gp=guinea pig polyclonal): mo a-MAP2abc, 1:5000 (Sigma), mo a-MAP2ab, 1:500 (Sigma), mo a-p75NGFR, 1:10 (192-IgG hybridoma supernatant, a gift from C. E. Chandler, Stanford Univ., Stanford, Calif.), rb a-c-Fos (4),1:4000 (Santa Cruz Biotechnology, Santa Cruz, Calif.), gp a-GFAP, 1:500 (Advanced Immunochemicals, Long Beach, Calif.), rb a-GABA, 1:5000 (Sigma), mo a-TH, 1:500 (Boehringer Mannheim), rb a-calbindin 1:1000 (SWant, Bellinzona, Switzerland). Labeled cells were visualized using confocal scanning laser microscopy (Zeiss Axiovert, Thornwood, N.Y. and Bio-Rad MRC1000, Hemel Hempstead, UK) and color images were generated using Adobe Photoshop (Adobe Systems, Mountain View, Calif.). Both the average percentage and the absolute number +/− SEM of immunofluorescent cells were determined by counting 10 or 50 high power fields (20×) visualized under fluorescence. The total number of cells was counted using nuclear counterstaining with 4′,6diamidino-2-phenylindole (DAPI, Sigma). Statistical analyses were carried out using ANOVA test.
Histochemical Staining for AChE. Cholinergic cells were identified by histochemical staining for AChE by a modification of the staining method of Geneser-Jensen and Blackstadt. Distribution of acetylcholinesterase in the hippocampal region of the guinea pig. I. Entorhinal area parasubiculum, and pre-subiculum, Z Zellforsch 114:460-481(1971). […]

[2] = test system: low-buoyancy cortical cells; test: Acquisition of neuron competence by low-buoyancy cortical cells in culture; settings: 10% serum or 5 ng/ml PDGF instead of FGF-2
From the text: Tissue dissection: Three areas were dissected from adult rat brains as follows. Rats (170-190 g Fisher 344 males or females, Harlan) were deeply anesthetized with a mixture of ketamine, xylazine, and acepromazine. Animals were decapitated and whole brains removed. First, ˜1.5 mm of each optic nerve were harvested rostral to, but not including, the optic chiasma. The brain was then bisected longitudinally and each hippocampal lobe separated from the overlaying cortical white matter using the natural separation line along the alveus hippocampus. The white matter of the fimbria and subiculum was removed as much as possible. Some white matter remained. Finally, a 1.5 mm wide cortical ribbon containing parietal and frontal segments was dissected longitudinally, proximal to the central fissure. The pial and callosal surfaces were trimmed from each cortical ribbon to remove a majority of the meninges and white matter.
Tissue dissociation and fractionation: Tissues were finely minced and digested in a solution of papain (2.5 U/ml, Worthington), DNAse (250 U/ml, Worthington), and neutral protease (1 U/ml Dispase, Boehringer) dissolved in Hanks balanced salt solution, as described in Palmer T D, Ray J, Gage F H (1995), FGF-2-Responsive Neuronal Progenitors Reside in Proliferative and Quiescent Regions of the Adult Rodent Brain. Mol Cell Neurosci 6:474-486; and Gage F H, Coates P W, Palmer T D, Kuhn H G, Fisher L J, Suhonen J O, Peterson D A, Suhr S T, Ray J (1995), Survival and differentiation of adult neuronal progenitor cells transplanted to the adult brain. Proc Natl Acad Sci USA 92:11879-11883. Cells and tissue fragments were washed 3 times with Dulbecco's Modified Eagles Medium (DMEM) containing 10% […] bovine serum (defined FBS, Hyclone). Whole digested tissue was then suspended in DMEM 10% FBS, filtered through a sterile 107 μm nylon mesh and thoroughly mixed with an equal volume of PERCOLL™ (polyvinylpyrrolidone-coated silica colloids) solution. The PERCOLL™ (polyvinylpyrrolidone-coated silica colloids) solution was made by mixing 9 parts of PERCOLL™ (polyvinylpyrrolidone-coated silica colloids) (Pharmacia) with 1 part 10X phosphate buffered saline (PBS, Irvine Scientific). The cell suspension was then fractionated by centrifugation for 30 minute, 18°C., at 20,000×g. […]
To determine how rapidly cortical cells acquired the competence to differentiate into neurons in culture, cells were isolated and cultured in growth medium for various times, allowed to differentiate in differentiation medium and then evaluated for the presence of neurons. […] Cultures were also treated with BrdU for the first 10 days and the newly generated neurons were evaluated for evidence of cell division. All neurons scored were labeled (>99%).

COC(=O)[C@@]1(O)C[C@H]2O[C@]1(C)n1c3ccccc3c3c4c(c5c6ccccc6n2c5c31)C(=O)NC4 [K-252a, reference compound]
c-fos induction by each neurotrophin (NGF, BDNF, NT-3) ([1]; pretreatment with K-252a (100 nM)): blocked

NT-3: Neurotrophin-3
induction of c-fos mRNA [1]: slightly increased
number of AChE-positive cells (ACSC cultures): small increases over control cultures
number of TH-positive cells (ACSC cultures): increased
number of calbindin-positive cells (ACSC cultures): increased
number of neurons expressing GABA (ACSC cultures): increased

PDGF
neuron formation in control cultures [2]: no neurons were formed

B1: NGF: mouse 2.55 NGF, nerve growth factor (protein, UniProt P01139 122-241, looked up)
Beta-nerve growth factor: SSTHPVFHMGEFSVCDSVSVWVGDKTTATDIKGKEVTVLAEVNINNSVFRQYFFETKCRASNPVESGCRGIDSKHWNSYCTTTHTFVKALTTDEKQAAWRFIRIDTACVCVLSRKATRRG
induction of c-fos mRNA [1]: minimal
number of AChE-positive cells (ACSC cultures): small increases over control cultures
number of TH-positive cells (ACSC cultures): not

B2: BDNF: brain-derived neurotrophic factor (protein, UniProt P23560 19-247, looked up)
Neurotrophic factor BDNF …: APMKEANIRGQGGLAYPGVRTHGTLESVNGPKAGSRGLTSLADTFEHVIEELLDEDQKVRPNEENNKDADLYTSRVMLSSQVPLEPPLLFLLEEYKNYLDAANMSMRVRRHSDPARRGELSVCDSISEWVTAADKKTAVDMSGGTVTVLEKVPVSKGQLKQYFYETKCNPMGYTKEGCRGIDKRHWNSQCRTTQSYVRALTMDSKKRIGWRFIRIDTSCVCTLTIKRGR
induction of c-fos mRNA [1]: minimal
number of AChE-positive cells (ACSC cultures): most effective agent
number of TH-positive cells (ACSC cultures): increased
number of calbindin-positive cells (ACSC cultures): increased
number of neurons expressing GABA (ACSC cultures): increased
